Numbering of substitutions follows the chain as printed.
B1: QP190191 (antibody, V domains shown)
VH: EVKLVESGGGLVKPGGSLKLSCAASGFTFSNYAMSWVRQTPEKRLEWVASIISGGRTYYLDSEKGRFTISRDNARNNLYLQMSSLRSEDTAMYYCTRIYYGNSFDYWGQGTTLTVSS
VL: DIVMTQSPSSQTVTAGEKVTMSCKSSQSLLNSGNQKNYLTWYQQKPGQPPKLLIYWASTRESGVPDRFTGSGSGTDFTLTISNMQAEDLAVYYCQNDYSYPFTFGSGTKLEIK
B2: QP192193 (antibody, V domains shown)
VH: QVQLQQSGAELVRPGSSVKISCKASGYAFSSYWMNWVKQRPGQGLEWIGQIYPGNGDTTYNGKFKGQATLTADKSSSTVYMQLSSLTSEDSAVYFCARFVKGNAMDYWGQGTSVTVSS
VL: B1 VL with Q11L, K45N, L52M, T75I, T78S, N83S, M84V, V91L, D97A
B3: QP201202 (antibody, V domains shown)
VH: EVQLQQSGPELVKPGASVKMSCKASGYTFTNYFVHWVKQKPGQGLEWIGYINPYNDDTKYNEKFKGKATLTSDKSSSTAYMDLSSLTSEDSAVYYCLSLRFFAYWGQGTLVTVSA
VL: B1 VL with Q11L, P49A, T69I, N83H, M84V, Y93F, F102L, S106A, K109N, I112L
B4: QP207208 (antibody, V domains shown)
VH: EVQLQQSGPELVKPGASVKMSCKASGYTFTSYIMHWVKQKPGQGLEWIGYINPYNDGTKYNEKFKGKATLTSDKSSSTVYMELSSLTSEDSAVYCCARLGFTTRNAMDYWGQGTSVTVSS
VL: B1 VL with Q11L, T12S, T14S, S22N, T40A, W56G, N83S, M84V, Y98H

Target: claudin 18.2 (isoform 2 subtype of CLDN18) (UniProt P56856)
Assay: FACS, 5 ug/ml antibody on dissociated GA0006 gastric cancer PDX tumor cells, PE anti-human IgG Fc

Molecule | Ratio of antibody-bound cells [%]
IMAB362 (Claudiximab) (antibody) | 85.6
B1 | 91.5
B2 | 92.4
B3 | 90
B4 | 91.7

Reference: patent US20220235128A1
